Measurements taken from publication PMC10294653.
Like-named read-outs stand apart in the source and are kept apart here.

Tests used:
Assay in all cases: two-hybrid; bacterial two hybrid (BACTH): T18 and T25 adenylate cyclase fusions in E. coli BTH101 (cya mutant); beta-galactosidase assay in Miller units; cultures grown overnight at 26°C, subcultured in LB, 37°C for 30 min
[1] = target: T25 fusion to the N terminus of WcaJ (K. pneumoniae (strain KPPR1S))
[2] = target: T25 fusion to the N terminus of Wzb (K. pneumoniae (strain KPPR1S))
[3] = target: T25 fusion to the N terminus of Wzc (K. pneumoniae (strain KPPR1S))
[4] = target: leucine zipper (zip) domain, positive control of the bacterial two-hybrid system
[5] = target: leucine zipper (zip) domain, positive control of the bacterial two-hybrid system; remark: listed apart in the source

Row | Substance | beta-galactosidase activity relative to the zip-zip controls (% of the zip-zip controls) [1] | beta-galactosidase activity relative to the zip-zip controls (% of the zip-zip controls) [2] | beta-galactosidase activity [3] [Miller units] | beta-galactosidase activity [4] [Miller units] | beta-galactosidase activity [5] [Miller units]
1 | RmpD-T18 (natural protein) | < 10 | < 10 | 2150 |  | 
2 | leucine zipper (zip) domain, positive control of the bacterial two-hybrid system (domain or fragment) |  |  |  | 1530 | 1740
